What was measured:
Conditions in all cases: remark: other sources report otherwise
[1] = biological target: myc-LRRK2 (human wild-type full-length leucine rich repeat kinase 2, myc-tagged) (human) (UniProt Q5S007); assay: native gel or EMSA
[2] = biological target: myc-LRRK2 (human wild-type full-length leucine rich repeat kinase 2, myc-tagged) (human) (UniProt Q5S007); assay: glycerol velocity gradient
[3] = biological target: myc-LRRK2 (human wild-type full-length leucine rich repeat kinase 2, myc-tagged) (human) (UniProt Q5S007); assay: SEC

Measured: stoichiometry N

myc-LRRK2 (human wild-type full-length leucine rich repeat kinase 2, myc-tagged), Q5S007 1-2527
2: all assays above
